According to paper PMC10470591:

Legend:
[1] = target: Flag-tagged SisArnE (vWA domain protein SisvWA2) expressed in S. islandicus (Saccharolobus islandicus REY15A); assay: co-IP; in vivo pull-down: Flag-ArnB or Flag-ArnE precipitated with anti-Flag magnetic beads from sonicated S. islandicus cell extract in buffer A (50 mM Tris-HCl pH 7.5, 150 mM NaCl, 5% glycerol); SisArnA detected by Western blot with anti-SisArnA; cells untreated or treated with 3 µM NQO for 6 h
[2] = target: Flag-tagged SisArnB (vWA domain protein) expressed in S. islandicus (Saccharolobus islandicus REY15A); assay: as above

- amount of SisArnA pulled down after NQO treatment, fold of the untreated sample [1]: 3 fold
- amount of SisArnA pulled down after NQO treatment, percent of the untreated sample [2]: 40%
- fold of the SisArnA-ArnE interaction, normal growth conditions [2]: 9 fold
Substance: SisArnA, FHA domain-containing protein from Saccharolobus islandicus REY15A (endogenous) (natural protein)
